T1: human FcγRIIaH extracellular domain, C-terminal His-tag (human, UniProt P12318 34-217)
T1 construct: also called human FcγRIIa (type H); FcgRIIaH; not shown: His-tag added to C-terminus
T1 sequence: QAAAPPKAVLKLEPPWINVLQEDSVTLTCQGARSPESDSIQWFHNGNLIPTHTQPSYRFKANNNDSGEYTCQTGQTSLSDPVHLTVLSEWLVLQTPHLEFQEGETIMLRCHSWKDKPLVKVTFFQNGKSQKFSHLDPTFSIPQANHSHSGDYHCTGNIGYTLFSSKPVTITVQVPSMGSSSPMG

T2: human FcγRIIaR extracellular domain, C-terminal His-tag (human, UniProt P12318 34-217)
T2 construct: also called human FcγRIIa (type R); FcgRIIaR; not shown: His-tag added to C-terminus
T2 chain: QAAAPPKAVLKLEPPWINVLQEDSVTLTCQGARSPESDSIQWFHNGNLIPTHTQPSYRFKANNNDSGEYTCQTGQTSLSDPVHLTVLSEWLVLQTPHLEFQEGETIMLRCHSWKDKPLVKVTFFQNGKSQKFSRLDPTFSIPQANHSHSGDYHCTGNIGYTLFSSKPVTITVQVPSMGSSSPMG


What was measured:
Test in all cases: SPR (BIACORE); KD of SG1 / KD of variant;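 further: relative to parent M103205H795-SG1 carrying the SG1 human heavy chain constant region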
[1] = target: T1, human FcγRIIaH extracellular domain, …
[2] = target: T3, human FcγRIIIaV extracellular domain, C-terminal His-tag (human, UniProt P08637 17-208)
T3 construct: also called FcgRIIIaV; not shown: His-tag added to C-terminus

[3] = target: T2, human FcγRIIaR extracellular domain, …

T3 sequence (P08637 17-208 F176V): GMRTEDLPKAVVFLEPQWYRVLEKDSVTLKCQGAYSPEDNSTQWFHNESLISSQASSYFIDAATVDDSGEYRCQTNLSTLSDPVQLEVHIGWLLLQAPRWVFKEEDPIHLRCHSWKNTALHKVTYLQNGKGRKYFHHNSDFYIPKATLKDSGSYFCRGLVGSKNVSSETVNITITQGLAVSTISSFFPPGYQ

| Binder | KD fold (SG1 = 1) [1] [fold] | KD fold (SG1 = 1) [2] [fold] | KD fold (SG1 = 1) [3] [fold] |
| --- | --- | --- | --- |
| M103205H795-PK2 / M103202L889-SK1 (antibody, human IgG1, kappa, CH with G236N/H268E/A330K/P396M/S400R/D413K against SG1 (EU numbering); also called MS1032LO06-PK2; MS103205H795-PK2) heavy: QVTLKESGPVLVKPTETLTLTCTVSGIDLSHDDISWVRQAPGKGLEWVGIISYAGSTYYASWAKGRLTISKDTSKNQVVLTMTNMDPVDTATYYCARGVPAYSHGGDLWGQGTLVTVSSASTKGPSVFPLAPSSKSTSGGTAALGCLVKDYFPEPVTVSWNSGALTSGVHTFPAVLQSSGLYSLSSVVTVPSSSLGTQTYICNVNHKPSNTKVDKKVEPKSCDKTHTCPPCPAPELLNGPSVFLFPPKPKDTLMISRTPEVTCVVVDVSEEDPEVKFNWYVDGVEVHNAKTKPREEQYNSTYRVVSVLTVLHQDWLNGKEYKCKVSNKALPKPIEKTISKAKGQPREPQVYTLPPSREEMTKNQVSLTCLVKGFYPSDIAVEWESNGQPENNYKTTPMVLDRDGSFFLYSKLTVKKSRWQQGNVFSCSVMHEALHNHYTQKSLSLSP light: DIVMTQSPATLSLSPGERATLSCTSSQSVYHANWLSWFQQKPGQPPKLLIYWASTLAYGVPSRFSGSGSGTDFTLTISSLQPEDAATYYCAGGYGGGRYAFGQGTKVEIKRTVAAPSVFIFPPSDEQLKSGTASVVCLLNNFYPREAKVQWKVDNALQSGNSQESVTEQDSKDSTYSLSSTLTLSKADYEKHKVYACEVTHQGLSSPVTKSFNRGEC | 1.2 | 0.06 | 1 |
| M103205H795-MY201 / M103202L889-SK1 (antibody, human IgG1, kappa, CH with G236N/H268D/A330K against SG1 (EU numbering); also called MS1032LO06-MY201) heavy: QVTLKESGPVLVKPTETLTLTCTVSGIDLSHDDISWVRQAPGKGLEWVGIISYAGSTYYASWAKGRLTISKDTSKNQVVLTMTNMDPVDTATYYCARGVPAYSHGGDLWGQGTLVTVSSASTKGPSVFPLAPSSKSTSGGTAALGCLVKDYFPEPVTVSWNSGALTSGVHTFPAVLQSSGLYSLSSVVTVPSSSLGTQTYICNVNHKPSNTKVDKKVEPKSCDKTHTCPPCPAPELLNGPSVFLFPPKPKDTLMISRTPEVTCVVVDVSDEDPEVKFNWYVDGVEVHNAKTKPREEQYNSTYRVVSVLTVLHQDWLNGKEYKCKVSNKALPKPIEKTISKAKGQPREPQVYTLPPSREEMTKNQVSLTCLVKGFYPSDIAVEWESNGQPENNYKTTPPVLDSDGSFFLYSKLTVDKSRWQQGNVFSCSVMHEALHNHYTQKSLSLSP light: DIVMTQSPATLSLSPGERATLSCTSSQSVYHANWLSWFQQKPGQPPKLLIYWASTLAYGVPSRFSGSGSGTDFTLTISSLQPEDAATYYCAGGYGGGRYAFGQGTKVEIKRTVAAPSVFIFPPSDEQLKSGTASVVCLLNNFYPREAKVQWKVDNALQSGNSQESVTEQDSKDSTYSLSSTLTLSKADYEKHKVYACEVTHQGLSSPVTKSFNRGEC | 0.8 | 0.03 | 0.6 |
| M103205H795-MY344 / M103202L889-SK1 (antibody, human IgG1, kappa, CH with G236N/H268D/Q295L/Q311R/A330K/D413K against SG1 (EU numbering); also called MS1032LO06-MY344) heavy: QVTLKESGPVLVKPTETLTLTCTVSGIDLSHDDISWVRQAPGKGLEWVGIISYAGSTYYASWAKGRLTISKDTSKNQVVLTMTNMDPVDTATYYCARGVPAYSHGGDLWGQGTLVTVSSASTKGPSVFPLAPSSKSTSGGTAALGCLVKDYFPEPVTVSWNSGALTSGVHTFPAVLQSSGLYSLSSVVTVPSSSLGTQTYICNVNHKPSNTKVDKKVEPKSCDKTHTCPPCPAPELLNGPSVFLFPPKPKDTLMISRTPEVTCVVVDVSDEDPEVKFNWYVDGVEVHNAKTKPREELYNSTYRVVSVLTVLHRDWLNGKEYKCKVSNKALPKPIEKTISKAKGQPREPQVYTLPPSREEMTKNQVSLTCLVKGFYPSDIAVEWESNGQPENNYKTTPPVLDSDGSFFLYSKLTVKKSRWQQGNVFSCSVMHEALHNHYTQKSLSLSP light: DIVMTQSPATLSLSPGERATLSCTSSQSVYHANWLSWFQQKPGQPPKLLIYWASTLAYGVPSRFSGSGSGTDFTLTISSLQPEDAATYYCAGGYGGGRYAFGQGTKVEIKRTVAAPSVFIFPPSDEQLKSGTASVVCLLNNFYPREAKVQWKVDNALQSGNSQESVTEQDSKDSTYSLSSTLTLSKADYEKHKVYACEVTHQGLSSPVTKSFNRGEC | 1 | 0.04 | 0.9 |
| M103205H795-MY335 / M103202L889-SK1 (antibody, human IgG1, kappa, CH with G236T/H268D/Q311R/A330K/D413K against SG1 (EU numbering); also called MS1032LO06-MY335) heavy: QVTLKESGPVLVKPTETLTLTCTVSGIDLSHDDISWVRQAPGKGLEWVGIISYAGSTYYASWAKGRLTISKDTSKNQVVLTMTNMDPVDTATYYCARGVPAYSHGGDLWGQGTLVTVSSASTKGPSVFPLAPSSKSTSGGTAALGCLVKDYFPEPVTVSWNSGALTSGVHTFPAVLQSSGLYSLSSVVTVPSSSLGTQTYICNVNHKPSNTKVDKKVEPKSCDKTHTCPPCPAPELLTGPSVFLFPPKPKDTLMISRTPEVTCVVVDVSDEDPEVKFNWYVDGVEVHNAKTKPREEQYNSTYRVVSVLTVLHRDWLNGKEYKCKVSNKALPKPIEKTISKAKGQPREPQVYTLPPSREEMTKNQVSLTCLVKGFYPSDIAVEWESNGQPENNYKTTPPVLDSDGSFFLYSKLTVKKSRWQQGNVFSCSVMHEALHNHYTQKSLSLSP light: DIVMTQSPATLSLSPGERATLSCTSSQSVYHANWLSWFQQKPGQPPKLLIYWASTLAYGVPSRFSGSGSGTDFTLTISSLQPEDAATYYCAGGYGGGRYAFGQGTKVEIKRTVAAPSVFIFPPSDEQLKSGTASVVCLLNNFYPREAKVQWKVDNALQSGNSQESVTEQDSKDSTYSLSSTLTLSKADYEKHKVYACEVTHQGLSSPVTKSFNRGEC | 2.4 | 0.16 | 3.8 |
| M103205H795-MY205 / M103202L889-SK1 (antibody, human IgG1, kappa, CH with G236N/H268D/Q295L/A330K against SG1 (EU numbering); also called MS1032LO06-MY205) heavy: QVTLKESGPVLVKPTETLTLTCTVSGIDLSHDDISWVRQAPGKGLEWVGIISYAGSTYYASWAKGRLTISKDTSKNQVVLTMTNMDPVDTATYYCARGVPAYSHGGDLWGQGTLVTVSSASTKGPSVFPLAPSSKSTSGGTAALGCLVKDYFPEPVTVSWNSGALTSGVHTFPAVLQSSGLYSLSSVVTVPSSSLGTQTYICNVNHKPSNTKVDKKVEPKSCDKTHTCPPCPAPELLNGPSVFLFPPKPKDTLMISRTPEVTCVVVDVSDEDPEVKFNWYVDGVEVHNAKTKPREELYNSTYRVVSVLTVLHQDWLNGKEYKCKVSNKALPKPIEKTISKAKGQPREPQVYTLPPSREEMTKNQVSLTCLVKGFYPSDIAVEWESNGQPENNYKTTPPVLDSDGSFFLYSKLTVDKSRWQQGNVFSCSVMHEALHNHYTQKSLSLSP light: DIVMTQSPATLSLSPGERATLSCTSSQSVYHANWLSWFQQKPGQPPKLLIYWASTLAYGVPSRFSGSGSGTDFTLTISSLQPEDAATYYCAGGYGGGRYAFGQGTKVEIKRTVAAPSVFIFPPSDEQLKSGTASVVCLLNNFYPREAKVQWKVDNALQSGNSQESVTEQDSKDSTYSLSSTLTLSKADYEKHKVYACEVTHQGLSSPVTKSFNRGEC | 1.5 | 0.06 | 0.8 |

Results, then the binder that gave them:

| KD fold (SG1 = 1) [1] [fold] | KD fold (SG1 = 1) [2] [fold] | KD fold (SG1 = 1) [3] [fold] | Binder |
| --- | --- | --- | --- |
| 1.4 | 0.07 | 1.3 | M103205H795-MY101 / M103202L889-SK1 (antibody, human IgG1, kappa, CH with G236N/H268E/A330K/P396M against SG1 (EU numbering); also called MS1032LO06-MY101) heavy: QVTLKESGPVLVKPTETLTLTCTVSGIDLSHDDISWVRQAPGKGLEWVGIISYAGSTYYASWAKGRLTISKDTSKNQVVLTMTNMDPVDTATYYCARGVPAYSHGGDLWGQGTLVTVSSASTKGPSVFPLAPSSKSTSGGTAALGCLVKDYFPEPVTVSWNSGALTSGVHTFPAVLQSSGLYSLSSVVTVPSSSLGTQTYICNVNHKPSNTKVDKKVEPKSCDKTHTCPPCPAPELLNGPSVFLFPPKPKDTLMISRTPEVTCVVVDVSEEDPEVKFNWYVDGVEVHNAKTKPREEQYNSTYRVVSVLTVLHQDWLNGKEYKCKVSNKALPKPIEKTISKAKGQPREPQVYTLPPSREEMTKNQVSLTCLVKGFYPSDIAVEWESNGQPENNYKTTPMVLDSDGSFFLYSKLTVDKSRWQQGNVFSCSVMHEALHNHYTQKSLSLSP light: DIVMTQSPATLSLSPGERATLSCTSSQSVYHANWLSWFQQKPGQPPKLLIYWASTLAYGVPSRFSGSGSGTDFTLTISSLQPEDAATYYCAGGYGGGRYAFGQGTKVEIKRTVAAPSVFIFPPSDEQLKSGTASVVCLLNNFYPREAKVQWKVDNALQSGNSQESVTEQDSKDSTYSLSSTLTLSKADYEKHKVYACEVTHQGLSSPVTKSFNRGEC |
| 0.7 | 0.06 | 0.7 | M103205H795-MY351 / M103202L889-SK1 (antibody, human IgG1, kappa, CH with G236N/H268D/Q311R/A330K/D413K against SG1 (EU numbering); also called MS1032LO06-MY351) heavy: QVTLKESGPVLVKPTETLTLTCTVSGIDLSHDDISWVRQAPGKGLEWVGIISYAGSTYYASWAKGRLTISKDTSKNQVVLTMTNMDPVDTATYYCARGVPAYSHGGDLWGQGTLVTVSSASTKGPSVFPLAPSSKSTSGGTAALGCLVKDYFPEPVTVSWNSGALTSGVHTFPAVLQSSGLYSLSSVVTVPSSSLGTQTYICNVNHKPSNTKVDKKVEPKSCDKTHTCPPCPAPELLNGPSVFLFPPKPKDTLMISRTPEVTCVVVDVSDEDPEVKFNWYVDGVEVHNAKTKPREEQYNSTYRVVSVLTVLHRDWLNGKEYKCKVSNKALPKPIEKTISKAKGQPREPQVYTLPPSREEMTKNQVSLTCLVKGFYPSDIAVEWESNGQPENNYKTTPPVLDSDGSFFLYSKLTVKKSRWQQGNVFSCSVMHEALHNHYTQKSLSLSP light: DIVMTQSPATLSLSPGERATLSCTSSQSVYHANWLSWFQQKPGQPPKLLIYWASTLAYGVPSRFSGSGSGTDFTLTISSLQPEDAATYYCAGGYGGGRYAFGQGTKVEIKRTVAAPSVFIFPPSDEQLKSGTASVVCLLNNFYPREAKVQWKVDNALQSGNSQESVTEQDSKDSTYSLSSTLTLSKADYEKHKVYACEVTHQGLSSPVTKSFNRGEC |
